Key:
[1] = target: T1, mouse EphA4 extracellular region-SEAP-His protein (mouse); test: SPR (Biacore T200), mouse EphA4 extracellular region-SEAP-His captured on an anti-His antibody CM5 chip, antibody as analyte at 0.6-50 nM, 1:1 fit (run alongside F(ab')2)
Method: Next, the binding affinity of antibody A-Fab and antibody A-F(ab′)₂ for mouse and human EphA4 was determined by surface plasmon resonance (SPR) using Biacore T200 (GE Healthcare). Antibody A obtained in Example 1 was used as a control for the comparison of each fragment. First, an anti-His tag antibody was immobilized on sensor chip CM5. The immobilization of the anti-His tag antibody on sensor chip CM5 was performed by the amine coupling method using N-hydroxysuccinimide (NHS) and N-ethyl-N′-(3-dimethylaminopropyl)carbodiimide hydrochloride (EDC). Ethanolamine was used in blocking (the sensor chip and the reagents for immobilization were all manufactured by GE Healthcare). The antibody was diluted with a buffer solution for immobilization (10 mM sodium acetate, pH 4.5) into 3 μg/mL and immobilized on the sensor chip according to the protocol attached to Biacore T200.
Mouse or human EphA4 extracellular region-SEAP-His protein was diluted with a running buffer solution HBS-EP (GE Healthcare, BR-1001-88), injected onto a flow cell for 120 seconds, and captured (amount of the protein captured: approximately 10 to 20 RU). Subsequently, antibody A (50, 16.7, 5.6, 1.9, 0.6, and 0 nM), antibody A-Fab (500, 166.7, 55.6, 18.5, 6.2, and 0 nM), or antibody A-F(ab′)₂ (50, 16.7, 5.6, 1.9, 0.6, and 0 nM) serially diluted using HBS-EP was added to the sensor chip for 120 seconds. Binding reaction curves were sequentially observed at the time of the addition (association phase, for 120 sec) and after the completion of the addition (dissociation phase, for 900 sec). After the completion of each observation, the sensor chip was regenerated by the addition of 3 M MgCl₂ (Wako Pure Chemical Industries) (for 30 sec). The obtained binding reaction curves were subjected to fitting analysis with 1:1 binding models using software BIA evaluation attached to the system to calculate the binding affinity (KD=kd/ka) for mouse and human EphA4.

[2] = target: T1, mouse EphA4 extracellular …; test: competition ELISA, competitor biotinylated mouse Ephrin B2-Fc; first value printed
Method: Antibody A-Fab and antibody A-F(ab′)₂ obtained in Example 5 were evaluated for their inhibitory activity against the binding between EphA4 and its ligand according to the following steps. Each well of a 96-well plate (Nunc) was coated with an anti-alkaline phosphatase antibody (Thermo Fisher Scientific). After incubation overnight at 4° C., each well was blocked with 1% BlockAce (DS Pharma Biomedical) at room temperature for 1 hour. After washing with 0.05% Tween 20/PBS (Thermo Fisher Scientific) three times, the mouse EphA4 extracellular region-SEAP-His protein obtained by the method of Example 1 was added (final concentration: 10 nM) to each well and incubated at room temperature for 1 hour. After washing three times, a ligand and serially diluted antibody A (0, 0.003, 0.01, 0.03, 0.1, 0.3, 1, 3, 10, 30, 100, 300, 1000, and 3000 nM), antibody A-Fab (0, 0.003, 0.01, 0.03, 0.1, 0.3, 1, 3, 10, 30, 100, 300, 1000, and 3000 nM), antibody A-F(ab′)₂ (0, 0.003, 0.01, 0.03, 0.1, 0.3, 1, 3, 10, 30, 100, 300, 1000, and 3000 nM), or the EphA4 inhibitor KYL peptide ([…], 0, 0.0003, 0.001, 0.003, 0.01, 0.03, 0.1, 0.3, 1, 3, 10, 30, 100, 300, 1000, and 3000 μM, its synthesis was outsourced to Toray Research Center) were added to each well. […] The absorbance at 450 nm was read using a microplate reader (Molecular Devices or PerkinElmer). […]

[3] = target: T2, human EphA4 extracellular region-SEAP-His protein (human, UniProt P54764 20-547); test: competition ELISA, competitor human Ephrin A5-Fc
T2 construct: also called hEphA4-SEAP-His
T2 sequence (P54764 20-547): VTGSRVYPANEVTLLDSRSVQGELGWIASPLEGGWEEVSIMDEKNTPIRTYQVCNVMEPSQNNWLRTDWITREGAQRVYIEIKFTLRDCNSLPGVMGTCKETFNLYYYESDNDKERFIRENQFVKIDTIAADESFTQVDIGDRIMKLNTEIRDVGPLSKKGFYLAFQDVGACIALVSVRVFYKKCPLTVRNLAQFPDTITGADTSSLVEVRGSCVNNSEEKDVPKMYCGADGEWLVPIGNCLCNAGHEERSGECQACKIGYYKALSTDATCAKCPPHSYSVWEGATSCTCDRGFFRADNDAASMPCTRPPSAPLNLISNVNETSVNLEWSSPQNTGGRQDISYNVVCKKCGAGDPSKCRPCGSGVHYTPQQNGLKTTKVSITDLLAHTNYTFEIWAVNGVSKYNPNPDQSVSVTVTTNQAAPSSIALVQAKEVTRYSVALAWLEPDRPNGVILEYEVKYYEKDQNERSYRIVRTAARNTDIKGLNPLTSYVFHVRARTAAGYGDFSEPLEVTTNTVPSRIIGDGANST
Method: Antibody A obtained in Example 1 was evaluated for its inhibitory activity against the binding between human EphA4 and its human ligand according to the following steps. Each well of a 96-well plate (Nunc) was coated with an anti-alkaline phosphatase antibody (Thermo Fisher Scientific). After incubation overnight at 4° C., each well was blocked with 1% BlockAce (DS Pharma Biomedical) at room temperature for 1 hour. After washing with 0.05% Tween 20/PBS (Thermo Fisher Scientific) three times, the human EphA4 extracellular region-SEAP-His protein obtained by the method of Example 1 was added (final concentration: 10 nM) to each well and incubated at room temperature for 1 hour. After washing three times, ligands and serially diluted antibody A (0, 0.003, 0.01, 0.03, 0.1, 0.3, 1, 3, 10, 30, 100, 300, 1000, and 3000 nM) or an EphA4 inhibitor KYL peptide ([…], 0, 0.003, 0.01, 0.03, 0.1, 0.3, 1, 3, 10, 30, 100, 300, 1000, and 3000 μM, its synthesis was outsourced to Toray Research Center) were added to each well. The ligands used were biotinylated human Ephrin A5-Fc chimera (R&D Systems, final concentration: 0.7 nM) and biotinylated human Ephrin B3-Fc chimera (R&D Systems, final concentration: 2.3 nM). […] The absorbance at 450 nm was read using a microplate reader (Molecular Devices or PerkinElmer). […]

[4] = target: rat EphA4 in rat hippocampal neurons (rat, UniProt D3ZZK3 20-986); test: cell-based or functional assay

T1 sequence (chain, as listed by the source limits assumed): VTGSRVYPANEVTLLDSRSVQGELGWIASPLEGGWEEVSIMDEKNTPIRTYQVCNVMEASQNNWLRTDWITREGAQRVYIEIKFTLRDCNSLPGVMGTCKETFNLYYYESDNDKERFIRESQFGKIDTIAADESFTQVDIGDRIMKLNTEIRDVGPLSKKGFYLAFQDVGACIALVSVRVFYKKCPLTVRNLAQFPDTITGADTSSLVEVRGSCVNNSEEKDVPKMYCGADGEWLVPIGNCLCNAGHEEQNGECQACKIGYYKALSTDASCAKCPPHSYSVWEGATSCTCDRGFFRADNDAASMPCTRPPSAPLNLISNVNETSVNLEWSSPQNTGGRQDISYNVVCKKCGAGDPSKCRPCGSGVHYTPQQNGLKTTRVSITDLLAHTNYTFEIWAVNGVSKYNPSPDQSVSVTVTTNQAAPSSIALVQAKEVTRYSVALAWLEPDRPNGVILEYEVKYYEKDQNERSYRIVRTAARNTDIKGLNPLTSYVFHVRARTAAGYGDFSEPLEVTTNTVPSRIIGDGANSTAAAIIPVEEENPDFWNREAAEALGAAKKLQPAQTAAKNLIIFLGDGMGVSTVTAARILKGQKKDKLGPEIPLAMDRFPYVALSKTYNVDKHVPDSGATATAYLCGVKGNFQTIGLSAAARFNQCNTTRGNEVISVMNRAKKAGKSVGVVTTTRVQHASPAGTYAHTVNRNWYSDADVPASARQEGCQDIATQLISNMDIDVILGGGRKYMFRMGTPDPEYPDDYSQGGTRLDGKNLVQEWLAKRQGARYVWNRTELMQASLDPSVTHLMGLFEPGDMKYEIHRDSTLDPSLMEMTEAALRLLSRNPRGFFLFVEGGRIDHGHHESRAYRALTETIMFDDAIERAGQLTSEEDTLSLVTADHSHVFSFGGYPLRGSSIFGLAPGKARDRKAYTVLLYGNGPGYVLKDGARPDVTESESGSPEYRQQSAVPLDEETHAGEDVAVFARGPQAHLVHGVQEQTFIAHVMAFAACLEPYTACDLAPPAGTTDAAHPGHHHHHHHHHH

Kd [1]: 0.0423 nM | koff [1]: 0.000288 s⁻¹ | kon [1]: 6.81e+06 M⁻¹ s⁻¹ | IC50 [2]: 2.6 nM | IC50 [3]: ~2.7 nM | IC50 of suppression of EphA4 autophosphorylation induced by mouse EphrinA1 in the hippocampal neurons [4]: 24.2 nM
B1: antibody A (antibody, mouse IgG1, kappa, V domains shown)
VH: QIQLVQSGPELKKPGETVKISCKASGYTFTDYSMHWVKQAPGKGLKWMGWINTETGEPTYADDFKGRFAFSLETSASTAYLQINNLKNEDTATYFCARIPLYYYGSRYWYFDVWGAGTTVTVSS
VL: DIQMTQSPASLSVSVGETVTITCRASENIYRNLAWYQQKQGKSPQLLVYAATNLADGVPSRFSGSGSGTQYSLKINSLQSEDFGSYYCQHFWGTPWTFGGGTKLEIKR
notes: mouse IgG1 heavy chain, kappa light chain; purified from hybridoma supernatant; also called anti-EphA4 monoclonal antibody; antibody A-IgG
